The target of this assay is VBC ternary complex (pVHL, Elongin B, Elongin C) (UniProt P40337 1-213; Q15370 1-104; Q15369 17-112). As to the kind of experiment: BLI.

Ends that are not written are not given here.

Molecule ASLKPRVV-NH2 [8-mer Cul2 peptide, Met1 replaced by alanine] registered a Kd of 2800 µM.

MSAKPRVV-NH2 [8-mer Cul2 peptide, Leu3 replaced by alanine] had a Kd of 2900 µM.

In turn, MALKPRVV-NH2 [8-mer Cul2 peptide, Ser2 replaced by alanine] registered a Kd of 7100 µM.

The molecule MSLKPRVA-NH2 [8-mer Cul2 peptide, Val8 replaced by alanine] gave a dissociation constant (Kd) of 500 µM.

For the molecule MSLKPRAV-NH2 [8-mer Cul2 peptide, Val7 replaced by alanine], the Kd was found to be 2100 µM.

The record behind these values is article PMC5639367 (2017).
